Literature values as cited in article PMC4355281.

Biological target: PKA RII (UniProt P13861)
Sequence (P13861 2-404): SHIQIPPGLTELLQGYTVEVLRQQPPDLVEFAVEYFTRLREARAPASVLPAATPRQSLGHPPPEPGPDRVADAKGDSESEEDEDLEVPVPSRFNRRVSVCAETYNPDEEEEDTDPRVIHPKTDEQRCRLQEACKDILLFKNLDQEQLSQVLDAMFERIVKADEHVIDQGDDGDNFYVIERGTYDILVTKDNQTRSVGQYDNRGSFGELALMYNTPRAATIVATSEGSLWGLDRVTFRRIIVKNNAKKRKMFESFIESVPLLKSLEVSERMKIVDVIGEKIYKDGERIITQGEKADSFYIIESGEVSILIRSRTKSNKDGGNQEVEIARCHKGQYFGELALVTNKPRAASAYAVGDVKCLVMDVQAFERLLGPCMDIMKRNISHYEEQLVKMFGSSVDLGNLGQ

mAKAPβ, sequence (Q9WVC7 245-2314): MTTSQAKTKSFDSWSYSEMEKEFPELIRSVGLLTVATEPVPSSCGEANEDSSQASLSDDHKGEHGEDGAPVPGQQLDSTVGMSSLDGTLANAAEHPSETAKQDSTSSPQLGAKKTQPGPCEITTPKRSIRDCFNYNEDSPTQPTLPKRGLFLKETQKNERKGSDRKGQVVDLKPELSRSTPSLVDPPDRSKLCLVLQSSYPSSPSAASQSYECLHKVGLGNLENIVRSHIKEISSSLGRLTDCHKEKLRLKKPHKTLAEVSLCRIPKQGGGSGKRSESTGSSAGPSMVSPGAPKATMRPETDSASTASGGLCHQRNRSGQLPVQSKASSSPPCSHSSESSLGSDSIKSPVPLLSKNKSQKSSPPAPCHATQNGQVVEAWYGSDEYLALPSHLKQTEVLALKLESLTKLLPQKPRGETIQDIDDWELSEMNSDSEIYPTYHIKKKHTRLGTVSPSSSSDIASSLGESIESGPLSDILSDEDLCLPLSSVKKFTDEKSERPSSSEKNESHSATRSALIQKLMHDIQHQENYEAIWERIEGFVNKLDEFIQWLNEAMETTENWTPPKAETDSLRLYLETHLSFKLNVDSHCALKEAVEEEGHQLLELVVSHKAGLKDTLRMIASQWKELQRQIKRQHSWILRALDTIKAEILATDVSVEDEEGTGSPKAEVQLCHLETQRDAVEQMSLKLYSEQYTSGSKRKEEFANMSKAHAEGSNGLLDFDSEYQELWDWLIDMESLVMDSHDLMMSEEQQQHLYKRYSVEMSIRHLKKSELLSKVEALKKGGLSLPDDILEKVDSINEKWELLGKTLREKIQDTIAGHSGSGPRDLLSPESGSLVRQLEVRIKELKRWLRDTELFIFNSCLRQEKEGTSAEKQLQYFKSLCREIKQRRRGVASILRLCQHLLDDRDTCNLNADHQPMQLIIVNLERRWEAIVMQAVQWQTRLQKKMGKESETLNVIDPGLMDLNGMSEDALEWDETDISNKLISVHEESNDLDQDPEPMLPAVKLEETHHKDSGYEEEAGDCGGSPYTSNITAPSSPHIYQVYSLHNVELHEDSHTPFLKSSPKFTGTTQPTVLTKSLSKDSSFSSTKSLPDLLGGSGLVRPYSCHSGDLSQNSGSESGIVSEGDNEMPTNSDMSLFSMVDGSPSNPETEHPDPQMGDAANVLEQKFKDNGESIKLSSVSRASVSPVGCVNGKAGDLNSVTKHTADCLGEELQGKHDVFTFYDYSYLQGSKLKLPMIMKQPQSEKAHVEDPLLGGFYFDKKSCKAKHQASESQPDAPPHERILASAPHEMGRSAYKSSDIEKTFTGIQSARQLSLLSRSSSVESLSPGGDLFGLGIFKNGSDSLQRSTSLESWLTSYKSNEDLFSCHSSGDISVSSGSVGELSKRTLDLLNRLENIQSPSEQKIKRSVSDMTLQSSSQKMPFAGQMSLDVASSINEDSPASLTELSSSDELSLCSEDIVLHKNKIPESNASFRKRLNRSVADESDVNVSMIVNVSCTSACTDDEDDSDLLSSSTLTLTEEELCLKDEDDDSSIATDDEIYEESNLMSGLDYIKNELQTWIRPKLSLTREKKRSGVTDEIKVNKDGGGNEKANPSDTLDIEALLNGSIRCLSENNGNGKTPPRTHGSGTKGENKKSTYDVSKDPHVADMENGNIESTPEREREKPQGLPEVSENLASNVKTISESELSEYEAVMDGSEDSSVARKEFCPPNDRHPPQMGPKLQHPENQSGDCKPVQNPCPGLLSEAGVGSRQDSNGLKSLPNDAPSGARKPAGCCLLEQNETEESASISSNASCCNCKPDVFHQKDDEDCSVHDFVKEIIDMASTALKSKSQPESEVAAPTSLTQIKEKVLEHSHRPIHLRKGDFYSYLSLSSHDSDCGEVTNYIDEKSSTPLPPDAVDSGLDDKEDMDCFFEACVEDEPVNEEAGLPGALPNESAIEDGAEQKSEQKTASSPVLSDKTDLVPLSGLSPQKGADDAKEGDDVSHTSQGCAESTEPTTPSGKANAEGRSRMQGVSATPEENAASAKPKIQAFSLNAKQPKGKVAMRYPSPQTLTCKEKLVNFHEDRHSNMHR

Kd: 119 nM
Substance: mAKAPβ (from UniProt Q9WVC7)
